Source: patent US7205275 (dated 2007)
Primed or numbered codes have the meaning given here. Where no end group is shown, it is not given here. [ ]: non-standard residue; d: D form. Fc(4) = non-antigen-binding fragment of an antibody (from proteolytic digestion of a whole antibody); Fc = immunoglobulin Fc domain fused to the peptide (peptibody); Fc(7) = Fc domain, peptide fused N- or C-terminal to it

T1: human Ang-2 (human, UniProt O15123)
T1 chain: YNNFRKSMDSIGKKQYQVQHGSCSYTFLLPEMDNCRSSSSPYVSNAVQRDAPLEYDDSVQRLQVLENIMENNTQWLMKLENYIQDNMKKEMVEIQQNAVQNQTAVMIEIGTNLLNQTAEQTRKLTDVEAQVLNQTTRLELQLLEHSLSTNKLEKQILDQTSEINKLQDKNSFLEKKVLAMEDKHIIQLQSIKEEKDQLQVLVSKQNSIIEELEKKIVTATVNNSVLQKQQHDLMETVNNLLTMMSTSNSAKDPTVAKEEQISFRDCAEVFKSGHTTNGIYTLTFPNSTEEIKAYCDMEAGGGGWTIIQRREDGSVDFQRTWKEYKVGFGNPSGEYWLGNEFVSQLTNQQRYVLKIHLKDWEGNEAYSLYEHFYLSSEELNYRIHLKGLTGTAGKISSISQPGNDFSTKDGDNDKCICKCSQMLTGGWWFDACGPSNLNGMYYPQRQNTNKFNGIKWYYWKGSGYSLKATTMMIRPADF


Biological target: T1, human Ang-2
Experiment: competition ELISA vs Tie-2

| IC50 [nM] | Binder |
| --- | --- |
| 0.26 | M[Fc(4)]GGGGGAQGHSQEECGWDPWTCEHMGTSLE (not fully specified; cysteine pairing not given here) [Con4-48 (C)] |
| 150 | M[Fc(7)]GGGGGAQVWRSQVCQWDPWTCNLGGDWLE (not fully specified (bridges); cysteine pairing not given here) [Con4-22 (C)] |
| 0.28 | M[Fc]GGGGGAQVKTQEHCDWDPWTCEHMREWLE (not fully specified; cysteine pairing not given here) [Con4-34 (C)] |
| > 1000 | M[Fc(7)]GGGGGAQFGWSHGCEWDPWTCRLLQGWLE (not fully specified (bridges); cysteine pairing not given here) [Con4-2 (C)] |
| 0.48 | M[Fc(4)]GGGGGAQWAQQEECAWDPWTCDHMVGLLE (not fully specified; cysteine pairing not given here) [Con4-45 (C)] |
| 0.31 | M[Fc(7)]GGGGGAQRAPQEDCEWDPWTCAHMDIKLE (not fully specified (bridges); cysteine pairing not given here) [Con4-25 (C)] |
| > 1000 | M[Fc(7)]GGGGGAQRPEDMCSQWDPWTWHLQGYCLE (not fully specified (bridges); cysteine pairing not given here) [Con4-26 (C)] |
| > 1000 | M[Fc(7)]GGGGGAQPDTRQGCQWDPWTCRLYGMWLE (not fully specified (bridges); cysteine pairing not given here) [Con4-24 (C)] |
| > 1000 | M[Fc(7)]GGGGGAQTWPQDKCEWDPWTCRLLQGWLE (not fully specified (bridges); cysteine pairing not given here) [AC1-Con4 (C)] |
| 0.48 | M[Fc(7)]GGGGGAQQVIGRPCEWDPWTCEHLEGLLE (not fully specified (bridges); cysteine pairing not given here) [Con4-20 (C)] |
| 2.47 | M[Fc(7)]GGGGGAQVLGGQGCQWDPWTCSHLEDGLE (not fully specified (bridges); cysteine pairing not given here) [Con4-1 (C)] |
| 1.54 | M[Fc(7)]GGGGGAQVLGGQGCEWDPWTCRLLQGWLE (not fully specified (bridges); cysteine pairing not given here) [AC4-Con4 (C)] |
| 0.28 | M[Fc]GGGGGAQKSGQVECNWDPWTCEHMPRNLE (not fully specified; cysteine pairing not given here) [Con4-36 (C)] |
| > 1000 | M[Fc(7)]GGGGGAQDKILEECEWDPWTCRLLQGWLE (not fully specified (bridges); cysteine pairing not given here) [AC3-Con4 (C)] |
| 86.6 | M[Fc(7)]GGGGGAQTQGLHQCEWDPWTCKVLWPSLE (not fully specified (bridges); cysteine pairing not given here) [Con4-10 (C)] |
| 1.2 | M[Fc(4)]GGGGGAQSTIGDMCEWDPWTCAHMQVDLE (not fully specified; cysteine pairing not given here) [Con4-8 (C)] |
| > 1000 | M[Fc(7)]GGGGGAQGPAQEECEWDPWTCEPLPLMLE (not fully specified (bridges); cysteine pairing not given here) [Con4-30 (C)] |
| 0.52 | M[Fc(7)]GGGGGAQFGWSHGCEWDPWTCEHMGSTLE (not fully specified (bridges); cysteine pairing not given here) [AC2-Con4 (C)] |
| 0.38 | M[Fc(4)]GGGGGAQHGQNMECEWDPWTCEHMFRYLE (not fully specified; cysteine pairing not given here) [Con4-50 (C)] |

| IC50 [nM] | Binder |
| --- | --- |
| > 1000 | M[Fc(7)]GGGGGAQMGGAGRCEWDPWTCQLLQGWLE (not fully specified (bridges); cysteine pairing not given here) [Con4-13 (C)] |
| 9.88 | M[Fc(7)]GGGGGAQTSQRVGCEWDPWTCQHLTYTLE (not fully specified (bridges); cysteine pairing not given here) [Con4-23 (C)] |
| 9.8 | M[Fc(4)]GGGGGAQTTIGSMCQWDPWTCEHMQGGLE (not fully specified (bridges); cysteine pairing not given here) [Con4-C4 (C)] |
| 0.96 | M[Fc(7)]GGGGGAQGPRISTCQWDPWTCEHMDQLLE (not fully specified (bridges); cysteine pairing not given here) [Con4-17 (C)] |
| 0.19 | M[Fc(4)]GGGGGAQWAAQEECEWDPWTCEHMGRMLE (not fully specified; cysteine pairing not given here) [Con4-49 (C)] |
| 0.41 | M[Fc(7)]GGGGGAQRTTQEKCEWDPWTCEHMESQLE (not fully specified (bridges); cysteine pairing not given here) [Con4-29 (C)] |
| 0.17 | M[Fc(4)]GGGGGAQLRHQEGCEWDPWTCEHMFDWLE (not fully specified; cysteine pairing not given here) [Con4-42 (C)] |
| 282 | M[Fc(7)]GGGGGAQDKILEECQWDPWTCQFFYGALE (not fully specified (bridges); cysteine pairing not given here) [Con4-3 (C)] |
| > 1000 | M[Fc(7)]GGGGGAQAATQEECEWDPWTCRLLQGWLE (not fully specified (bridges); cysteine pairing not given here) [AC5-Con4 (C)] |
| 0.49 | M[Fc]GGGGGAQLPGQEDCEWDPWTCEHMVRSLE (not fully specified; cysteine pairing not given here) [Con4-37 (C)] |
| 2.75 | M[Fc(4)]GGGGGAQTTIGSMCEWDPWTCAHMQGGLE (not fully specified (bridges); cysteine pairing not given here) [Con4-C1 (C)] |
| > 1000 | M[Fc(7)]GGGGGAQMFLPNECQWDPWTCSNLPEALE (not fully specified (bridges); cysteine pairing not given here) [Con4-14 (C)] |
| 3.21 | M[Fc(7)]GGGGGAQTKGKSVCQWDPWTCSHMQSGLE (not fully specified (bridges); cysteine pairing not given here) [Con4-21 (C)] |
| 0.4 | M[Fc]GGGGGAQPRLQEECVWDPWTCEHMPLRLE (not fully specified; cysteine pairing not given here) [Con4-38 (C)] |
| 0.3 | M[Fc]GGGGGAQPVNQEDCEWDPWTCEHMPPMLE (not fully specified; cysteine pairing not given here) [Con4-39 (C)] |
| 3.75 | M[Fc(4)]GGGGGAQTTIGSMCQWDPWTCAHMQGGLE (not fully specified (bridges); cysteine pairing not given here) [Con4-C2 (C)] |
| 20.1 | M[Fc(4)]GGGGGAQGTSPSFCQWDPWTCSHMVQGLE (not fully specified; cysteine pairing not given here) [Con4-9 (C)] |
| 6.94 | M[Fc(7)]GGGGGAQAVGSQTCEWDPWTCAHLVEVLE (not fully specified (bridges); cysteine pairing not given here) [Con4-16 (C)] |
